Laboratory results reported in paper PMC4642984, “CRY Drives Cyclic CK2-Mediated BMAL1 Phosphorylation to Control the Mammalian Circadian Clock” (PLoS Biology, 2015).

Target: T1, ELucC-BMAL1 (mouse, UniProt Q9WTL8-2 1-625)
T1 construct: full-length mouse BMAL1 cDNA ligated downstream of ELucC; also called ELucC-BMAL1-WT (full length); ELucC-mBMAL1; source: Cos7 cells, transfected, in living cells; not shown: ELucC (C-terminal fragment of Emerald luciferase), N-terminal, kept
Assay: split reporter (BiFC, NanoBiT); Split Luc complementation in living Cos7 cells transfected with ELucN-CK2β and ELucC-BMAL1 (WT or mutant) together with pcDNA, Myc-HA-CRY1, Myc-CRY2 or FLAG-CRY1 (WT or Cd1-4); real-time bioluminescence, averaged peak values
Conditions: partners not purified

T1 sequence (Q9WTL8 other isoform, or with tags, fused parts or gaps): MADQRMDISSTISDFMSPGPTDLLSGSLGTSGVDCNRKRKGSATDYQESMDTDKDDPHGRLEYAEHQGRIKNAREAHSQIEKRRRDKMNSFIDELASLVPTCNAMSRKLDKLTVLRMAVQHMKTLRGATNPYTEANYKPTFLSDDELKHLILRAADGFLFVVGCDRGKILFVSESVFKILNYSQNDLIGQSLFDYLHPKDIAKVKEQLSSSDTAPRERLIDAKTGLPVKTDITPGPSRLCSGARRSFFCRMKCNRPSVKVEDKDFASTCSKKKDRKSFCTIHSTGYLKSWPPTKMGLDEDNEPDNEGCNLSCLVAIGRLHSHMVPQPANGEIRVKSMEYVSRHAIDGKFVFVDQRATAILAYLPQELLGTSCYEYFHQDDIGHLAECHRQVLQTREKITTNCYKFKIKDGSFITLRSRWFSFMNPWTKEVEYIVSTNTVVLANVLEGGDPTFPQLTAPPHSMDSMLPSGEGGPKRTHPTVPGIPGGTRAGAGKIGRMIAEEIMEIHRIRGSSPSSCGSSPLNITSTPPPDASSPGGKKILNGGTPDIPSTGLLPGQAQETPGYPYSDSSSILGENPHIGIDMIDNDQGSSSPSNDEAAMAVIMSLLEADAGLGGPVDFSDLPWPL

fold increase of Split Luc bioluminescence in the presence of CRY proteins: ~4 fold
fold increase of Split Luc bioluminescence on over-expression of Myc-tagged CRY1 or CRY2: ~6 fold
B1: ELucN-CK2β (natural protein)
chain: not shown
notes: full-length human CK2β cDNA ligated downstream of ELucN; Vector backbone pcDNA4/V5-His (B) or pcDNA3.1; also called CMV-ELucN-CK2β; source: Cos7 or U-2OS cells, transfected, in living cells; not shown: ELucN (N-terminal fragment of Emerald luciferase), N-terminal, kept
